The labels stand for the following.
T1: Abp1 SH3 (ABP1_YEAST), P15891
T1 chain: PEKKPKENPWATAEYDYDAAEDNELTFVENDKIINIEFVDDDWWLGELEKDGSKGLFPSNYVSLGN

This experiment concerns the target T1, Abp1 SH3 (ABP1_YEAST), P15891. The experiment can be described thus: SPOT array.
KKLSSSMPNSPKKP [YDL117W 113-126] yielded a normalised SPOT signal, Boehringer light units (BLU); mean over the file's lines of this peptide of 153.
In turn, KNYDVIVPNVWRP [YML115C 378-390] yielded a normalised SPOT signal, Boehringer light units (BLU); mean over the file's lines of this peptide of 15.7.
As for KMIMKLIPKDVKP [YJL131C 312-324], the figure is 1480.
Molecule KKHNSWVPKWLKP [YFL034W 914-926] yielded a normalised SPOT signal, Boehringer light units (BLU); mean over the file's lines of this peptide of 194.
The molecule KIGLIQFQISPPKP [YDL143W 233-246] registered a normalised SPOT signal, Boehringer light units (BLU); mean over the file's lines of this peptide of 40.5.
As for KQQQEQQNKAPEKP [YGL105W 191-204], the normalised SPOT signal, Boehringer light units (BLU); mean over the file's lines of this peptide stood at 97.5.
Molecule KKIEAKKATRPSKP [YNL173C 323-336] had a normalised SPOT signal, Boehringer light units (BLU); mean over the file's lines of this peptide of 80.
For KNSDMMIPLDVKP [YOL081W 3046-3058], the normalised SPOT signal, Boehringer light units (BLU); mean over the file's lines of this peptide is 89.
KKEYSETFYHPYKP [YPL008W 3-16] gave a normalised SPOT signal, Boehringer light units (BLU); mean over the file's lines of this peptide of 109.
Take KKSRSTGFKNPLRP [YML061C 150-163]: the normalised SPOT signal, Boehringer light units (BLU); mean over the file's lines of this peptide stood at 184.
Turning to KKISFNPVVTPIRP [YFR023W 33-46], the normalised SPOT signal, Boehringer light units (BLU); mean over the file's lines of this peptide was found to be 0.
Turning to KPTPPPKPSHLKP [YNL020C 608-620], the normalised SPOT signal, Boehringer light units (BLU); mean over the file's lines of this peptide was determined as 133000.
In turn, KLHFSSFPNDIRP [YER097W 23-35] registered a normalised SPOT signal, Boehringer light units (BLU); mean over the file's lines of this peptide of 396.
In turn, KNDGSSSFVKPRRP [YNL215W 286-299] came in with a normalised SPOT signal, Boehringer light units (BLU); mean over the file's lines of this peptide of 202.
KLYYVLYSSLPSKP [YGR216C 582-595] returned a normalised SPOT signal, Boehringer light units (BLU); mean over the file's lines of this peptide of 0.4.
For KKIKKKSPTGMKP [YOL075C 641-653], the normalised SPOT signal, Boehringer light units (BLU); mean over the file's lines of this peptide was 120.
As for KKPASKAPAEKKP [YBL002W 7-19], the figure is 174.
Consider KKKSSPATKVPSKP [YGL207W 456-469], for which the normalised SPOT signal, Boehringer light units (BLU); mean over the file's lines of this peptide turned out to be 65.
In turn, KPEYFPFPIYDKP [YBR086C 485-497] had a normalised SPOT signal, Boehringer light units (BLU); mean over the file's lines of this peptide of 96.4.
With KLQGSFNPEYIKP [YML072C 1243-1255], the normalised SPOT signal, Boehringer light units (BLU); mean over the file's lines of this peptide worked out at 108.
KPLININPYTRKP [YLR357W 223-235] displayed a normalised SPOT signal, Boehringer light units (BLU); mean over the file's lines of this peptide of 1140.
For KMISNRRPVPRRP [YPR091C 656-668], the normalised SPOT signal, Boehringer light units (BLU); mean over the file's lines of this peptide was found to be 6230.
KLKELQTITVPGKP [YER124C 120-133] returned a normalised SPOT signal, Boehringer light units (BLU); mean over the file's lines of this peptide of 131.
With KLGPISTSKSPKKP [YJL051W 233-246], the normalised SPOT signal, Boehringer light units (BLU); mean over the file's lines of this peptide is 200.
For KILDLKFPPKERP [YKL211C 326-338], the normalised SPOT signal, Boehringer light units (BLU); mean over the file's lines of this peptide came to 257.
Molecule KPFNPTLPEGIRP [YJL050W 736-748] returned a normalised SPOT signal, Boehringer light units (BLU); mean over the file's lines of this peptide of 87.3.
As for KLDIISDPESERP [YGL004C 356-368], the figure is 107.
Consider KRAKEYIANLPMRP [YGR040W 256-269], for which the normalised SPOT signal, Boehringer light units (BLU); mean over the file's lines of this peptide is 22.
For KKPKLNKRVLPSKP [YLR183C 347-360], the normalised SPOT signal, Boehringer light units (BLU); mean over the file's lines of this peptide was 128.
KMQRYFRPIIVRP [YLR290C 188-200] returned a normalised SPOT signal, Boehringer light units (BLU); mean over the file's lines of this peptide of 541.
KLKITRNPNPSKP [YHR208W 27-39]: the normalised SPOT signal, Boehringer light units (BLU); mean over the file's lines of this peptide is 245.
As for KKLLLKGYIPPYKP [YMR104C 605-618], the figure is 95.9; as for KPVAPTSTDAPAKP [YOL027C 66-79], 45.8; as for KIQELYLPHMSRP [YMR131C 92-104], 166.
On to KQKNIYVISTPKRP [YLR398C 492-505], for which the normalised SPOT signal, Boehringer light units (BLU); mean over the file's lines of this peptide is 98.7.
In the case of KRKRSKGEVNPSKP [YPR137W 9-22], the normalised SPOT signal, Boehringer light units (BLU); mean over the file's lines of this peptide was 110.
KPGWVVYPPPPKP [YML035C 221-233]: the normalised SPOT signal, Boehringer light units (BLU); mean over the file's lines of this peptide turned out to be 154.
KKQTQLSSTAPKKP [YGR056W 686-699] had a normalised SPOT signal, Boehringer light units (BLU); mean over the file's lines of this peptide of 34.9.
As to KRESLNQPSTTKP [YHR084W 174-186], the normalised SPOT signal, Boehringer light units (BLU); mean over the file's lines of this peptide amounted to 134.

The record behind these values is paper PMC314469, “Protein Interaction Networks by Proteome Peptide Scanning” (PLoS Biology, 2004).
